{"source": "IntAct's records for PubMed 18653891", "parents": {"B1": {"name": "Serine/threonine-protein kinase BSK1 (Arabidopsis thaliana (Mouse-ear cress)), Q944A7 (parent)", "chain": "MGCCQSLFSGDNPLGKDGVQPQPLSQNNHGGATTADNGGSGGASGVGGGGGGGGIPSFSEFSFADLKAATNNFSSDNIVSESGEKAPNLVYKGRLQNRRWIAVKKFTKMAWPEPKQFAEEAWGVGKLRHNRLANLIGYCCDGDERLLVAEFMPNDTLAKHLFHWENQTIEWAMRLRVGYYIAEALDYCSTEGRPLYHDLNAYRVLFDEDGDPRLSCFGLMKNSRDGKSYSTNLAYTPPEYLRNGRVTPESVTYSFGTVLLDLLSGKHIPPSHALDMIRGKNIILLMDSHLEGKFSTEEATVVVELASQCLQYEPRERPNTKDLVATLAPLQTKSDVPSYVMLGIKKQEEAPSTPQRPLSPLGEACSRMDLTAIHQILVMTHYRDDEGTNELSFQEWTQQMKDMLDARKRGDQSFREKDFKTAIDCYSQFIDVGTMVSPTVFGRRSLCYLLCDQPDAALRDAMQAQCVYPDWPTAFYMQSVALAKLNMNTDAADMLNEAAQLEEKRQRGGRGS"}}}
{"variants_of": "B1", "settings": "with bri1_arath BRI1, O22476"}
{"variant": "S230A", "effect of a mutation on the interaction": "decreasing interaction"}
